B1: S2P6 monoclonal antibody (antibody, V domains shown)
VH: EVQLVQSGAEVKKPGASVKVSCKASGYTFTSQYMHWVRQAPGQGLEWIGIINPSGVHTSYAQKFQGRVTLTRDTSTSTLYMELSSLRSEDTAVYYCARGSPKGAFDYWGQGTLVTVSS
VL: not shown
notes: also called S2P6 mAb; S2P6 IgG; copies: 2 + 2
B2: S2P6 Fab fragment (Fab, V domains shown)
VH: EVQLVQSGAEVKKPGASVKVSCKASGYTFTSQYMHWVRQAPGQGLEWIGIINPSGVHTSYAQKFQGRVTLTRDTSTSTLYMELSSLRSEDTAVYYCARGSPKGAFDYWGQGTLVTVSS
VL: not shown

Key:
[1] = target: SARS-CoV-2 or SARS-CoV stem helix peptide (SARS-CoV-2; region stated to be …, biotin); assay: BLI; details: both partners purified
[2] = target: T1, prefusion-stabilized HKU1 S ectodomain trimer (Human coronavirus HKU1, isolate not …, UniProt Q5MQD0, stabilised); assay: ELISA; details: both partners purified
[3] = target: prefusion-stabilized OC43 S ectodomain trimer (Human coronavirus OC43, isolate not …, UniProt P36334, stabilised); assay: cell-based or functional assay
[4] = target: T1, prefusion-stabilized HKU1 S ectodomain …; assay: SPR; S2P6 Fab fragment and S glycoproteins (fig. S1, G and H); details: both partners purified

| Binder | binding result [1] | binding result [2] | neutralization of VSV pseudotyped with OC43 S, IC50 [3] [µg/mL] | Kd [4] [nM] |
| --- | --- | --- | --- | --- |
| B1 | binds | binds | 1.3 | – |
| B2 | – | – | – | ~120 |

From PMC9268357 (Science (New York, N.y.), 2021)
